Data: patent publication US20260070974A1 (NONA BIOSCIENCES SUZHOU, published 2026)

T1: human Siglec-15 ECD-his protein (Acrobiosystems, Cat #: SG5-H52H3) (human, UniProt Q6ZMC9 20-263)
T1 construct: Bought protein; only its extracellular domain stood in the assay; also called human Siglec-15 protein; recombinant human Siglec-15 protein; not shown: his tag
T1 sequence: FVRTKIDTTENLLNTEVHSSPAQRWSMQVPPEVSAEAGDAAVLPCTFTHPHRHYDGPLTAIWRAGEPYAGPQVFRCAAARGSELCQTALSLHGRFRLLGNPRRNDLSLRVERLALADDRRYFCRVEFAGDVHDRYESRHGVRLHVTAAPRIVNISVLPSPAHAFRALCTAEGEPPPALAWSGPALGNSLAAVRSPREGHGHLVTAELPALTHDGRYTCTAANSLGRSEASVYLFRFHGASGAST

T2: human Siglec-15 on CHO-K1/human Siglec-15 cells (KYinno, Beijing) (human, UniProt Q6ZMC9 20-328)
T2 sequence: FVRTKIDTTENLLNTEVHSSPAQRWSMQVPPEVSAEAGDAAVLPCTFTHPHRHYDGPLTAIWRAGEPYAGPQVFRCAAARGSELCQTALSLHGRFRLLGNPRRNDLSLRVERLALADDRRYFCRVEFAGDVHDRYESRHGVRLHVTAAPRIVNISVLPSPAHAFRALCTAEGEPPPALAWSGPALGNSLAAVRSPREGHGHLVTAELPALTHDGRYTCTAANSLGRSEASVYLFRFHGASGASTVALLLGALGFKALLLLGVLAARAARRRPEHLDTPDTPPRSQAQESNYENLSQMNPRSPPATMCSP

T3: cynomolgus monkey Siglec-15-his protein (Acrobiosystems, Cat #: SG5-C52H6) (cynomolgus monkey, UniProt Q6ZMC9 20-263 (human entry))
T3 construct: Bought protein; also called cynomolgus monkey Siglec-15 protein; not shown: his tag
T3 chain: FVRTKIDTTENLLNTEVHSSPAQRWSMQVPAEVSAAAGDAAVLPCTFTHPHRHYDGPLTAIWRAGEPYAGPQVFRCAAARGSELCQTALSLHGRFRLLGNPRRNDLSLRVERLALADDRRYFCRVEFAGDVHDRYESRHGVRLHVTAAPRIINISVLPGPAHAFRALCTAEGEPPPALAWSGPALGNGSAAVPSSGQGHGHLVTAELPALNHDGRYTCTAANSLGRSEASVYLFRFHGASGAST

B1: PR300659 (antibody, human IgG1, kappa, V domains shown)
VH: QVQLVESGGGVVQPGRSLRLSCAASGFIFSSYDIYWVRQAPGKGLEWVAVIWHDGSNKYYADSVKGRFTISRDNSKNTVYLQMNSLRAEDTAVYYCARDTHSYGSRIYYDYNYGMDVWGQGTTVTVSS
VL: DIQMTQSPSSLSASVGDRVSITCRASQSISSYLNWYQQKPGKAPKLLIYAASSLQSGVPSRFSGSGSGADFTLTISSLQPEDFATYYCQQTYSPPFTFGPGTKVDIKR
B2: PR300670 (antibody, human IgG1, kappa, V domains shown)
VH: QVQLVESGGGVVQPGRSLRLSCVASGFTFSTYGIHWVRQAPGKGLDWVSVIWYDGSHKYYADSVQDRFTISRDNSKNTLYLQMNSLRAEDTAVYYCAREGMITMVRGVIIDYQYHGMDVWGQGTTVTVSS
VL: DIQMTQSPSTLSASVGDRVTITCRASQSIGRRLAWYQQKPGKAPKLLIYKASSLESGVPSRFSGSGSGTEFTLTISSPQPDDFATYYCQQYHSYSYTFGQGTKLEIKR
B3: PR300526 (antibody, human IgG1, kappa, V domains shown)
VH: QVQLVQSGAEVKKPGASVKVSCKASGYTFTDYYMHWVRQAPGQGLEWMGWINPNSDGTNYAQRFQGRVTMTRDTSISTAYMELSRLRSDDTAVYYCARGRLLRFFDWLDVMDAWGQGTSVTVSS
VL: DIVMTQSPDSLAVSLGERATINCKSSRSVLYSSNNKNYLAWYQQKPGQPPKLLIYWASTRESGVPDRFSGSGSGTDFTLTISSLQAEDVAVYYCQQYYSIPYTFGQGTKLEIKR

Key:
[1] = target: T1, human Siglec-15 ECD-his protein …; experiment: BLI (Octet RED96), antibody on AHC sensor, Siglec-15 ECD-his as analyte
Protocol: Recombinant Human Siglec-15 Protein Affinity was determined using an Octet RED96 instrument (ForteBio) and an anti-human IgG Fc capture sensor (AHC biosensor, ForteBio, Cat #: 18-5060) according to the detailed procedures and methods provided by the manufacturer. Specifically, candidate antibodies were each diluted to a final concentration of 6 µg/mL and directly immobilized on AHC biosensors for kinetic measurements. The antigenic protein Siglec-15 ECD-his protein (Acrobiosystems, Cat #: SG5-H52H3) was diluted with 10× Kinetics buffer to 3 concentrations of 60 nM, 30 nM, and 15 nM separately and injected as the analyte for 120 s with a dissociation time of 400 s and then subjected to regeneration with 10 mM glycine HCl (pH 1.5) for 15 s. The association rate (kon) and dissociation rate (kdis) were calculated using a simple one-to-one Languir binding model (Octet Red96 data analysis software). The equilibrium dissociation constant (kD) was calculated as the ratio of kdis/kon.

[2] = target: T2, human Siglec-15 on CHO-K1/human …; experiment: flow cytometry on CHO-K1/human Siglec-15 cells
Protocol: CHO-K1/human Siglec-15 cells (KYinno, Beijing) were adjusted to a density of 1×10⁶/mL with PBS, and the cell suspension was added to a 96-well V-bottom plate at 100 μL/well. The 96-well V-bottom plate was centrifuged at 1000 rpm for 5 min and washed once with PBS+2% FBS. The cells were resuspended in […] of antibody diluted in a gradient (5-fold dilution, starting concentration: 500 nM) and incubated at 4° C. for 1 h, and PR300066 and hIgG1 were used as positive control and negative control, respectively. After 1 h, the cells were washed twice with PBS+2% FBS. The cells were incubated with 100 μL of Alexa Fluor 488 goat anti-human IgG (Jackson, Cat #: 109-545-098) at 4° C. for 1 h in the dark and then washed twice with PBS+2% FBS. The cells were then resuspended in 200 μL of PBS+2% FBS. The fluorescence intensity of the cells was analyzed using a BD FACSCanto™ II flow cytometer.

[3] = target: T3, cynomolgus monkey Siglec-15-his protein …; experiment: ELISA, coated cynomolgus monkey Siglec-15-his
Protocol: (§1) 1 g/mL cynomolgus monkey Siglec-15-his protein (Acrobiosystems, Cat #: SG5-C52H6) dissolved in PBS was added to an ELISA plate at 100 μL/well for coating and the plate was incubated overnight at 4° C. The ELISA plate was then blocked with PBST (PBS+0.05% Tween 20) containing 2% BSA at 200 μL/well and incubated at 37° C. for 1 h. The ELISA plate was washed 4 times with PBST. The anti-Siglec-15 antibody diluted in a gradient (5-fold dilution, starting concentration: 6.67 nM) was added to the ELISA plate at 100 µL/well and the plate was incubated at 37° C. for 1 h. The ELISA plate was washed 4 times with PBST. The goat anti-human IgG (H+L)-HRP (1:5000, Jackson, Cat #: 109-035-088) was added at 100 μL/well and the plate was incubated at 37° C. for 1 h. The ELISA plate was washed 4 times with PBST. The TMB substrate (Biopanda, Cat #: TMB-S-003) was added at 100 μL/well, and the plate was incubated at room temperature for 5 min, and then the stop buffer (Solarbio, Cat #: C1058) was added at 100 μL/well to stop the reaction.

[4] = target: T1, human Siglec-15 ECD-his protein …; experiment: ELISA, coated human Siglec-15 ECD-his
Protocol: as §1, with “human Siglec-15 ECD-his” for “cynomolgus monkey Siglec-15-his”, “SG5-H52H3)” for “SG5-C52H6)”, “μL/well” for “µL/well”

[5] = target: T4, mouse Siglec-15-his protein (Acrobiosystems, Cat #: SG5-M52H7) (mouse); experiment: ELISA, coated mouse Siglec-15-his
T4 construct: Bought protein; also called mouse Siglec-15 protein
Protocol: as §1, with “[…] mouse” for “g/mL cynomolgus monkey”, “#: SG5-M52H7)” for “#: SG5-C52H6)”, “100 μL/well” for “100 µL/well”, “Jackson, Cat:” for “Jackson, Cat #:”, “(Biopanda, Cat:” for “(Biopanda, Cat #:”

Row | Binder | Kd [1] [nM] | koff [1] [s⁻¹] | kon [1] [M⁻¹ s⁻¹] | EC50 [2] [nM] | Maximum (MFI) [2] [MFI] | EC50 [3] [nM] | EC50 [4] [nM] | EC50 [5] [nM]
1 | B1 | 0.00305 | 3.25e-06 | 1.07e+06 | 3.45 | 24000 | ~0.011 | 0.01 | 0.013
2 | B2 | 0.0858 | 3.09e-05 | 361000 | 1.49 | 16600 | 0.025 | 0.018 | 0.079
3 | B3 | – | – | – | – | – | 0.071 | 0.02 | 0.104
